From US20160362456
Changes are numbered by the printed parent chain.

Columns and labels:
Assay in all cases: EMSA
Conditions in all cases: derived from FIG. 2D
[1] = target: T1, XylR P363S P363S (Escherichia coli) (UniProt P0ACI3)
T1 sequence: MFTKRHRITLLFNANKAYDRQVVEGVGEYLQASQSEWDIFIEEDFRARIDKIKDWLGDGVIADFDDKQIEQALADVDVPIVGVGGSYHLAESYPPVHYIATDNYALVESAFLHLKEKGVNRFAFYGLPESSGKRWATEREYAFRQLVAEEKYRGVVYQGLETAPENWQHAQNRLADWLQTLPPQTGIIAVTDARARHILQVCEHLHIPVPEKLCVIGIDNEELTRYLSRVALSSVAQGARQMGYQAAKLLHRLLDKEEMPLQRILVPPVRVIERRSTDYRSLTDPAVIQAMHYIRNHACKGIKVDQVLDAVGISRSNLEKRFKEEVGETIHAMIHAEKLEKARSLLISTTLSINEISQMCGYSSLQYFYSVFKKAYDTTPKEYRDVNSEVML

[2] = target: T2, XylR R121C R121C (Escherichia coli) (UniProt P0ACI3)
T2 sequence: T1 sequence with R121C, S363P

[3] = target: T3, XylR wild-type (Escherichia coli) (UniProt P0ACI3)
T3 sequence: T1 sequence with S363P

Row | Substance | Kd [1] [nM] | Kd [2] [nM] | Kd [3] [nM] | Kd ([1]; value as printed) [nM]
1 | XylR binding site IA | 12.4 | 2.7 | 38.5 | 
2 | XylR binding site IF |  | 4 | 19.6 | 27
